Data set [1] has as its target rPrP90-231 (globular domain of recombinant prion protein) (murine, UniProt P04925 90-231). Nature of the data set: ITC. In general terms: ITC needs no label: the signal is the heat of the interaction.
Data set [2] concerns the target rPrP23-231 (full-length recombinant prion protein) (murine, UniProt P04925 23-231). Kind of data set: ITC.

The results in this text go back to doi:10.1101/659037.

Broadly, the Kd is the constant that tells how readily two partners part at equilibrium. For the molecule CCGCGTACAATCGAGCTCGGGTGTC (structured_DNA) [A1], the Kd in data set [1] was found to be 232 nM; in data set [2], 838 nM.
Taken in the same sequence, the figures for TGGTGGTAACAGACCCTTCCACGGC (ssDNA) [A2] were 1930 nM and 1470 nM.
